According to patent publication EP2385124A2 (Arbor Vita Corporation, dated 2011):
Each block holds one binder with its values, some of them ahead of it. No end group written: not given here. *: point of attachment. Biotin = O=C1N[C@H]2[C@H](CS[C@H]2CCCCC(=O)*)N1

Legend:
[1] = biological target: T1, GST-MPP1 PDZ domain fusion protein (UniProt Q00013 67-152); assay: A/G plate assay (TABLE 2)
T1 construct: domain: PDZ domain 1 (of 1); AA numbers count on the GenBank entry; also called 55 Kd erythrocyte membrane protein; not shown: glutathione-S transferase (GST) as encoded by vector pGEX-3X (Pharmacia)
T1 sequence: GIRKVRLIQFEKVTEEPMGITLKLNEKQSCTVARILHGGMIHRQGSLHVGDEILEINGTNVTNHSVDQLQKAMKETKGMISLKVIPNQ

[2] = biological target: T2, GST-PSD95 PDZ domains 1-3 fusion protein (human, UniProt P78352 58-395); assay: G assay, biotinylated peptide titrated on plate-bound GST-PDZ, saturation fit (apparent affinity)
T2 construct: domain: PDZ domains 1-3 (of 3); AA numbers count on the GenBank entry; not shown: glutathione-S transferase (GST) as encoded by vector pGEX-3X (Pharmacia)

[3] = biological target: T2, GST-PSD95 PDZ domains 1-3 fusion protein; assay: A/G plate assay (TABLE 2)
[4] = biological target: T3, GST-TIAM1 PDZ domain fusion protein (UniProt Q13009 844-931); assay: A/G plate assay (TABLE 2)
T3 construct: domain: PDZ 1 (of 1); AA numbers count on the GenBank entry; also called T-lymphoma invasion and metastasis inducing protein 1; not shown: glutathione-S transferase (GST) as encoded by vector pGEX-3X (Pharmacia)

[5] = biological target: T4, GST-AF6 PDZ domain fusion protein (UniProt P55196 1001-1093); assay: A/G plate assay (TABLE 2)
T4 construct: domain: PDZ domain 1 (of 1); AA numbers count on the GenBank entry; also called af-6 protein; not shown: glutathione-S transferase (GST) as encoded by vector pGEX-3X (Pharmacia)
T4 sequence: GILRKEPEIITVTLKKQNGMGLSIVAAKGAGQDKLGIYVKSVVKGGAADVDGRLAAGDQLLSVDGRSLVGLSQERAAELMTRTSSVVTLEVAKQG

[6] = biological target: T5, GST-KIAA0303 PDZ domain fusion protein (UniProt O15021 1139-1229); assay: A/G plate assay (TABLE 2)
T5 construct: domain: PDZ domain 1 (of 1); AA numbers count on the GenBank entry; also called K303; not shown: glutathione-S transferase (GST) as encoded by vector pGEX-3X (Pharmacia)
T5 sequence: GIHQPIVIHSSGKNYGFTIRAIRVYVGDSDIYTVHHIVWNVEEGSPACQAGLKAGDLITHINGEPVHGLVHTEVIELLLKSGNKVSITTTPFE

[7] = biological target: T6, GST-KIAA0561 PDZ domain fusion protein (UniProt O60307 948-1038); assay: A/G plate assay (TABLE 2)
T6 construct: domain: PDZ domain 1 (of 1); AA numbers count on the GenBank entry; also called K561; not shown: glutathione-S transferase (GST) as encoded by vector pGEX-3X (Pharmacia)
T6 sequence: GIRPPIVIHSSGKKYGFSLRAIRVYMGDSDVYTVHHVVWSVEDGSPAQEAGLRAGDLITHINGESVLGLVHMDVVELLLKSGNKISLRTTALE

[8] = biological target: T7, GST-PTN-4 PDZ domain fusion protein (UniProt P29074 516-604); assay: A/G plate assay (TABLE 2)
T7 construct: domain: PDZ domain 1 (of 1); AA numbers count on the GenBank entry; also called protein-tyrosine phosphatase meg1; not shown: glutathione-S transferase (GST) as encoded by vector pGEX-3X (Pharmacia)
T7 sequence: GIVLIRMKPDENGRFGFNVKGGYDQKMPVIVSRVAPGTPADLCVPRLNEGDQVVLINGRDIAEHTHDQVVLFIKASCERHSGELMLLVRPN

[9] = biological target: T8, GST-prIL16 PDZ domains 1-2 fusion protein (UniProt Q14005 1111-1324); assay: A/G plate assay (TABLE 2)
T8 construct: domain: PDZ domain 1-2 (of 2); AA numbers count on the GenBank entry; also called putative interleukin 16 precursor; not shown: glutathione-S transferase (GST) as encoded by vector pGEX-3X (Pharmacia)
T8 sequence: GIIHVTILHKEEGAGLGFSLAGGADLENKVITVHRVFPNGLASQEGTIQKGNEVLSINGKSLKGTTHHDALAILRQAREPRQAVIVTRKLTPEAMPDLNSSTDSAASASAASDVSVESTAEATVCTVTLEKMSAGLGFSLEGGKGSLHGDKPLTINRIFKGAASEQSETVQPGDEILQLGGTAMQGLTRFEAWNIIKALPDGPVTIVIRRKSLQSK

T2 sequence (P78352 other isoform, or with tags, fused parts or gaps): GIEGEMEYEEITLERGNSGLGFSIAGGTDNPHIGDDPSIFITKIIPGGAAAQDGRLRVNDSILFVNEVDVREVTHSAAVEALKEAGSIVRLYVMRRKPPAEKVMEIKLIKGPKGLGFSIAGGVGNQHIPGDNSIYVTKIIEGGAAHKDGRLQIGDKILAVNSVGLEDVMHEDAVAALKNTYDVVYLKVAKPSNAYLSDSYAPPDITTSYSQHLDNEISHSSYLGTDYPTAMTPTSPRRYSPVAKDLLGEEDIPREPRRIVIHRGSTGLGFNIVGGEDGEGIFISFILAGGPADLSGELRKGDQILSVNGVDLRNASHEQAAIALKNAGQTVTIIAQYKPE
T3 sequence (Q13009 other isoform, or with tags, fused parts or gaps): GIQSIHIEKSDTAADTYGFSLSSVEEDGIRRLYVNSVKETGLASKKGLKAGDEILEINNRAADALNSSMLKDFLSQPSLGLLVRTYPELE

Binder: Biotin-KDITSDSENSNFRNEIQSLV (also called AAI3L) [CD95 (Fas) C-terminal PL peptide AA13L]
Kd [2]: 85 µM

Binder: Biotin-QATSRNGHSARQHVVADTEL [CD34 C-terminal PL peptide AA7L]
binding result [3]: binds

Binder: Biotin-VTSPNKHLGLVTPHKTELV [CD83 C-terminal PL peptide AA47L]
binding result [3]: binds

Binder: Biotin-KKGTYLTDETHREVKFTSL [CD46 (Form 1) C-terminal PL peptide AA10L]
binding result [3]: binds

Binder: Biotin-TREDIYVNYPTFSRRPKTRV [DNAM-1 C-terminal PL peptide AA22L]
binding result [5]: binds
binding result [3]: binds

Binder: Biotin-ARKANMKGSYSLVEAQKSKV [VCAM1 C-terminal PL peptide AA17L]
binding result [4]: binds
binding result [6]: binds
binding result [1]: binds

Binder: Biotin-SSKSKSSEESQTFFGLYKL (also called FAS Ligand) [FasL C-terminal PL peptide AA23L-M]
binding result [7]: binds

Binder: Biotin-SVFSIPTLWSPWPPSSSSQL (also called CD3-eta; CD3-η) [CD3n C-terminal PL peptide AA4L]
binding result [3]: binds

Binder: Biotin-QFMTADETRNLQNVDMKIGV [CD44 C-terminal PL peptide AA9L]
binding result [9]: binds
binding result [1]: binds

Continued, values first:

binding result [1]: binds
Binder: Biotin-SSAKSSNKNKKNKDKEYYV [Neurexin C-terminal PL peptide AA38L]

binding result [4]: binds
Binder: Biotin-PKQANGGAYQKPTKQEEFYA [CD138 C-terminal PL peptide AA18L]

binding result [3]: binds
Binder: Biotin-KDSRPSFVGSSSGHTSTTL [CDW128B (IL8RB) C-terminal PL peptide AA29.2L]

binding result [8]: binds
Binder: Biotin-EVICYIEKPGVETLEDSVF [CDW125 (IL5R) C-terminal PL peptide AA28L]

binding result [5]: binds
binding result [1]: no binding
binding result [3]: binds
Binder: Biotin-QGDPALQDAGDSSRKEYFI (also called GC) [Glycophorin C C-terminal PL peptide AA37L]

binding result [3]: binds
Binder: Biotin-TTNNNPNSAVNIKKIFTDV [KV1.3 C-terminal PL peptide AA33L]
